From paper PMC4909763 (Frontiers in Plant Science, 2016)

Target: the molecule itself
Test: native gel or EMSA

Protein	stoichiometry N
plant-made recombinant human butyrylcholinesterase, apoplast-targeted (prBChE) (enzyme, UniProt P06276 29-602, looked up, also called prBuChE; prBChE-AWF) EDDIIIATKNGKVRGMNLTVFGGTVTAFLGIPYAQPPLGRLRFKKPQSLTKWSDIWNATKYANSCCQNIDQSFPGFHGSEMWNPNTDLSEDCLYLNVWIPAPKPKNATVLIWIYGGGFQTGTSSLHVYDGKFLARVERVIVVSMNYRVGALGFLALPGNPEAPGNMGLFDQQLALQWVQKNIAAFGGNPKSVTLFGESAGAASVSLHLLSPGSHSLFTRAILQSGSFNAPWAVTSLYEARNRTLNLAKLTGCSRENETEIIKCLRNKDPQEILLNEAFVVPYGTPLSVNFGPTVDGDFLTDMPDILLELGQFKKTQILVGVNKDEGTAFLVYGAPGFSKDNNSIITRKEFQEGLKIFFPGVSEFGKESILFHYTDWVDDQRPENYREALGDVVGDYNFICPALEFTKKFSEWGNNAFFYYFEHRSSKLPWPEWMGVMHGYEIEFVFGLPLERRDNYTKAEEILSRSIVKRWANFAKYGNPNETQNNSTSWPVFKSTEQKYLTLNTESTRIMTKLRAQQCRFWTSFFPKVLEMTGNIDEAEWEWKAGFHRWNNYMMDWKNQFNDYTSKKESCVGL	4
ER-retained plant-made recombinant human butyrylcholinesterase (prBChE-ER) (enzyme, also called prBChE+KDEL; rBChE+KDEL) EDDIIIATKNGKVRGMNLTVFGGTVTAFLGIPYAQPPLGRLRFKKPQSLTKWSDIWNATKYANSCCQNIDQSFPGFHGSEMWNPNTDLSEDCLYLNVWIPAPKPKNATVLIWIYGGGFQTGTSSLHVYDGKFLARVERVIVVSMNYRVGALGFLALPGNPEAPGNMGLFDQQLALQWVQKNIAAFGGNPKSVTLFGESAGAASVSLHLLSPGSHSLFTRAILQSGSFNAPWAVTSLYEARNRTLNLAKLTGCSRENETEIIKCLRNKDPQEILLNEAFVVPYGTPLSVNFGPTVDGDFLTDMPDILLELGQFKKTQILVGVNKDEGTAFLVYGAPGFSKDNNSIITRKEFQEGLKIFFPGVSEFGKESILFHYTDWVDDQRPENYREALGDVVGDYNFICPALEFTKKFSEWGNNAFFYYFEHRSSKLPWPEWMGVMHGYEIEFVFGLPLERRDNYTKAEEILSRSIVKRWANFAKYGNPNETQNNSTSWPVFKSTEQKYLTLNTESTRIMTKLRAQQCRFWTSFFPKVLEMTGNIDEAEWEWKAGFHRWNNYMMDWKNQFNDYTSKKESCVGLKDEL	4
